# Measurements from the supplement of paper PMC10065799, “High-throughput profiling of sequence recognition by tyrosine kinases and SH2 domains using bacterial peptide display” (eLife, 2023).
# Target: Hck (UniProt P08631)
# Experiment: phosphorylation enrichment, bacterial display (enrichment ratio); higher = better substrate or ligand; peptides without Tyr show the background
# 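Further: 11-residue human phosphosite peptides and single-mutation variants displayed on the E. coli surface, counted by deep sequencing, each peptide's frequency after selection divided by its frequency in the unselected input library; frequency after pTyr selection over input frequency; kinase dosed for 20-30% of maximal phosphorylation in three min.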
# Hck, sequence (P08631 whole entry, looked up): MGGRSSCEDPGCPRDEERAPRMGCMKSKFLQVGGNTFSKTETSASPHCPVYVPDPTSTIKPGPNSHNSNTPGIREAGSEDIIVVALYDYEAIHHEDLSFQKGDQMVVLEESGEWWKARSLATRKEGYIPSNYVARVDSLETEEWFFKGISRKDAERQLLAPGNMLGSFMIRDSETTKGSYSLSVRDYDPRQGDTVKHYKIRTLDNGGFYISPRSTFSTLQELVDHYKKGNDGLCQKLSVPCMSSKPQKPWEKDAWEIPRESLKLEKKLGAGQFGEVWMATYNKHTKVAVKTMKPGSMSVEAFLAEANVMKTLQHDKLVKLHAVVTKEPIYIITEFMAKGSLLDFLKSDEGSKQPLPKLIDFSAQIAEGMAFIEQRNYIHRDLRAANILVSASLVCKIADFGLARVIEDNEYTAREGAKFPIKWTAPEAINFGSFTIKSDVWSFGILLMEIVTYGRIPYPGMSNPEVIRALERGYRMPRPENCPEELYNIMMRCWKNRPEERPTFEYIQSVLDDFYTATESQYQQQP
row,Sequence,phosphorylation enrichment
1,IDSTPYRQWFE [RPS8_Y109_YF],0.442
2,FETSHYPASPD [CTNND2_Y1217_YF],0.435
3,NPIGLYSAETL [LDB3_Y202],0.967
4,QELRRYLESGV [MICA_Y194_K196E],0.489
5,KTSGNYLPVTG [WDR19_Y28_A30P],0.405
6,IRYPPYTDWNQ [ALDH3B2_Y365_H361R],0.464
7,LHVKMYNFLRS [ADGRG7_Y760_R756H],0.625
8,KSDVVYTDWKK [ORM1_Y175],4.84
9,RLVTRYIFNRE [HLA-DQB1_Y62_Y58L_YF],0.445
10,GVPLGYPIKAS [ELN_Y206_P211S],0.404
11,DAANNYARGHY [TUBA3E_Y103_S101N],0.436
12,REVPVYISEDS [SYNM_Y460_G462S],1.09
13,GKSDPYHATTG [GJA1_Y247_S251T],0.413
14,RGSQQYRALPV [TUBB8_Y281_T285P],0.388
15,YNDSTYNQQLI [ZPLD1_Y198],0.506
16,LLFRVYGLESL [INSR_Y94],0.465
17,TNFCLYLRSLE [MTM1_Y71_R69C_YF],0.567

row,Sequence,phosphorylation enrichment
1,EVDGLYREAPI [MYL12B_Y143_E141G],0.536
2,EITSHYRHLLR [ZBTB46_Y14],0.389
3,KPNMNYDKLSR [FLI1_Y332],0.454
4,YDGKDYIALKE [HLA-A_Y147_N151K],0.49
5,PLDGEYFTLHI [TP53_Y327_Q331H],1.51
6,SHGKQYRVPSD [HHIPL2_Y395_R394Q],0.4
7,TKEPKYGGAGS [KIAA1210_Y1615_E1616G],0.361
8,AKKIKYFEGVS [PRKDC_Y682],0.447
9,AEPNIYQEKLS [USP54_Y1233_D1231N],0.778
10,YETVKYINNER [ABCB7_Y345_F346I],1.96
11,WVFNHYRWFIW [BRCA2_Y2624_I2627F_YF],0.482
12,GSIQQYTYKQE [PRG4_Y1271_I1272T],0.483
13,EPVSDYINANI [PTPN11_Y304],0.541
14,KEELAYLKKNH [KRT14_Y248],0.541
15,NFATLYLKIYH [PDE6B_Y219],0.42
16,LRVGFYESDVM [A2M_Y708],0.996

# Target: Jak2 (UniProt O60674)
# Experiment: as above
# Jak2, sequence (O60674 whole entry, looked up): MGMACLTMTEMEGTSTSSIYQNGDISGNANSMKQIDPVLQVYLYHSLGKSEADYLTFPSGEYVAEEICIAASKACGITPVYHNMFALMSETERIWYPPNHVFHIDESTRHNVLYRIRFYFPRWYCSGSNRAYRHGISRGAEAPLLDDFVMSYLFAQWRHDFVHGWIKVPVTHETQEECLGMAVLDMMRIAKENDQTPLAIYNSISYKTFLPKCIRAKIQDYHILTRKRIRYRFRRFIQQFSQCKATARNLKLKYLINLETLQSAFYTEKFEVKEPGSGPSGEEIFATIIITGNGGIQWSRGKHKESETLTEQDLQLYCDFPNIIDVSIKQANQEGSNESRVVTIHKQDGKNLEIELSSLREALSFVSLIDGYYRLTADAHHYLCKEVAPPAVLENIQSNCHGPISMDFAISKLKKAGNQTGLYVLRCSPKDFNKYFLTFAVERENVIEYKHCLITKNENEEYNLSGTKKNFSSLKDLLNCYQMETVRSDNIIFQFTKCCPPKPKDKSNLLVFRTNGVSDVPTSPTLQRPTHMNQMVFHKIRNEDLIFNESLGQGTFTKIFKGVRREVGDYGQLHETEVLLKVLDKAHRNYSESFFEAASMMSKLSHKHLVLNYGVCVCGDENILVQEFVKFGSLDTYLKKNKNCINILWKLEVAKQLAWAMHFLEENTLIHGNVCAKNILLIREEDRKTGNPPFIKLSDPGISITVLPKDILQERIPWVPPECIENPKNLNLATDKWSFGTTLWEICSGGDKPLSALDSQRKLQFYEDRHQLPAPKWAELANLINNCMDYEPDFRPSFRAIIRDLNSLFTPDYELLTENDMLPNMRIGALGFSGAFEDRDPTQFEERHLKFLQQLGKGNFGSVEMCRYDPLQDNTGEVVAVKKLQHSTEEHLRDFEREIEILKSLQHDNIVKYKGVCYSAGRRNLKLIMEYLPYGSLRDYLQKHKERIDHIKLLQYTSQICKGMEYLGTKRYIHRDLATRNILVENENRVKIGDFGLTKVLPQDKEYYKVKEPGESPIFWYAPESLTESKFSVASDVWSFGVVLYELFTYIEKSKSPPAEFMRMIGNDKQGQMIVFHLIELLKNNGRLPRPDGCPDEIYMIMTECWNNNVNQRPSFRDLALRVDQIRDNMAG
row,Sequence,phosphorylation enrichment
1,IDSTPYRQWFE [RPS8_Y109_YF],0.855
2,FETSHYPASPD [CTNND2_Y1217_YF],0.553
3,NPIGLYSAETL [LDB3_Y202],0.71
4,QELRRYLESGV [MICA_Y194_K196E],1.16
5,KTSGNYLPVTG [WDR19_Y28_A30P],0.524
6,IRYPPYTDWNQ [ALDH3B2_Y365_H361R],0.675
7,LHVKMYNFLRS [ADGRG7_Y760_R756H],1.69
8,KSDVVYTDWKK [ORM1_Y175],0.648
9,RLVTRYIFNRE [HLA-DQB1_Y62_Y58L_YF],0.556
10,GVPLGYPIKAS [ELN_Y206_P211S],0.477
11,DAANNYARGHY [TUBA3E_Y103_S101N],0.546
12,REVPVYISEDS [SYNM_Y460_G462S],3.51
13,GKSDPYHATTG [GJA1_Y247_S251T],0.41
14,RGSQQYRALPV [TUBB8_Y281_T285P],0.789
15,YNDSTYNQQLI [ZPLD1_Y198],0.612
16,LLFRVYGLESL [INSR_Y94],1.77
17,TNFCLYLRSLE [MTM1_Y71_R69C_YF],1.7

row,Sequence,phosphorylation enrichment
1,EVDGLYREAPI [MYL12B_Y143_E141G],0.83
2,EITSHYRHLLR [ZBTB46_Y14],0.601
3,KPNMNYDKLSR [FLI1_Y332],0.389
4,YDGKDYIALKE [HLA-A_Y147_N151K],1.03
5,PLDGEYFTLHI [TP53_Y327_Q331H],4.23
6,SHGKQYRVPSD [HHIPL2_Y395_R394Q],0.46
7,TKEPKYGGAGS [KIAA1210_Y1615_E1616G],0.416
8,AKKIKYFEGVS [PRKDC_Y682],0.427
9,AEPNIYQEKLS [USP54_Y1233_D1231N],0.948
10,YETVKYINNER [ABCB7_Y345_F346I],0.803
11,WVFNHYRWFIW [BRCA2_Y2624_I2627F_YF],1.25
12,GSIQQYTYKQE [PRG4_Y1271_I1272T],0.806
13,EPVSDYINANI [PTPN11_Y304],0.799
14,KEELAYLKKNH [KRT14_Y248],0.512
15,NFATLYLKIYH [PDE6B_Y219],1.27
16,LRVGFYESDVM [A2M_Y708],2.04
